In publication PMC4874493:

What was measured:
APOBEC3A E72A/C171A = APOBEC3A E72A/C171A (human, UniProt P31941 1-199, E72A;C171A); experiment: fluorescence anisotropy
APOBEC3A E72Q = APOBEC3A E72Q (human, UniProt P31941 1-199, E72Q); experiment: fluorescence anisotropy
APOBEC3A E72Q, sequence (P31941 whole entry E72Q): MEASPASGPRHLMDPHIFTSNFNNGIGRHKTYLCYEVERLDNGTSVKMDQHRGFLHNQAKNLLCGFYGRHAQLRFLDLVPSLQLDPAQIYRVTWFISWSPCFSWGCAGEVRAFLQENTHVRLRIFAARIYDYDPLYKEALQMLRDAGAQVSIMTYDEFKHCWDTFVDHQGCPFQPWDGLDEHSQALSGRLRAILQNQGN

APOBEC3A E72A/C171A, sequence (P31941 whole entry E72A/C171A): as the sequence (P31941 whole entry E72Q) above, with Q72A, C171A counted along it

B1: polyT (TTT) (ssDNA)
DNA: TTTTTTTTTTTTTTT
Kd (APOBEC3A E72A/C171A): 502 ± 27 nM | Kd (APOBEC3A E72Q): 205 ± 20 nM
